{"source": "patent US6077682", "target": "EnvZ(C)(223-289) (Escherichia coli)", "data": [{"substance": "EnvZ(C)(290-450) (enzyme)", "values": [{"measurement": "trans-autophosphorylation of sub-domain A with [gamma-32P]ATP, autoradiography", "value": 5, "unit": "%"}]}]}
